T1: L-selectin (LS-Rg) (Homo sapiens, UniProt P14151 P14151:39-332)
T1 sequence: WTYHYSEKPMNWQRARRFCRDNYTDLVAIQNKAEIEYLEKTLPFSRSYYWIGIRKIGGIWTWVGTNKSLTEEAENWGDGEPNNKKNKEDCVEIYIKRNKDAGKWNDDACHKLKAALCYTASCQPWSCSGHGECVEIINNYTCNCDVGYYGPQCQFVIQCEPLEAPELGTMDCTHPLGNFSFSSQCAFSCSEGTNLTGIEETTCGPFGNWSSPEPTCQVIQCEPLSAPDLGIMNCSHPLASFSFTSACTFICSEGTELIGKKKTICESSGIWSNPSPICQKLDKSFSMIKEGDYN

B1: LF1615 (ssRNA)
RNA: GGGAGGACGAUGCGGCGUAACUUCAGCGGUGUGUUAAUCAAGCCUUACGCCAUCUCAGACGACUCGCCCGA
modifications: 2'-F on all C and U
B2: LF1613 (ssRNA)
RNA: GGGAGGACGAUGCGGUGCUAUUCUUAAGCGGCGUGUUUUUCAAGCCAAUAUCAUCAGACGACUCGCCCGA
modifications: 2'-F on all C and U
B3: LF1523 (ssRNA)
RNA: GGGAGGACGAUGCGGUUCUUAAGCAGCGCGUCAAUCGAGCUAACCCAGACGACUCGCCCGA
modifications: 2'-F on all C and U
B4: LF1518 (ssRNA)
RNA: GGGAGGACGAUGCGGGCAAAUUGCAUGCGUUUUCGAGUGCUUGCUCAGACGACUCGCCCGA
modifications: 2'-F on all C and U
B5: LF1508 (ssRNA)
RNA: GGGAGGACGAUGCGGGACCCUUAGGCAACGUGUUUUCAAGUUGGUCAGACGACUCGCCCGA
modifications: 2'-F on all C and U
B6: LF1610 (ssRNA)
RNA: GGGAGGACGAUGCGGAGGGUCUUAAGCAGUGUGAUAAUCAAACUACUCUCCGUGUCAGACGACUCGCCCGA
modifications: 2'-F on all C and U
B7: LF1811 (ssRNA)
RNA: GGGAGGACGAUGCGGUAAUCUCUUAGGCAUCGCGUUAAUCGAGAUAGAUCACCGUCAGACGACUCGCCCGA
modifications: 2'-F on all C and U
B8: LF1513 (ssRNA)
RNA: GGGAGGACGAUGCGGGCUCUUCAGCAACGUGUUAUCAAGUUAGCCCAGACGACUCGCCCGA
modifications: 2'-F on all C and U
B9: LF1514 (ssRNA)
RNA: GGGAGGACGAUGCGGUACCUCAAAUUGCGUGUUUUCAAGCAGUAUCAGACGACUCGCCCGA
modifications: 2'-F on all C and U
B10: LF1807 (ssRNA)
RNA: GGGAGGACGAUGCGGAGUCUUAGGCAGCGCGUUUUCGAGCUACUCCAUCGCCAGUCAGACGACUCGCCCGA
modifications: 2'-F on all C and U
B11: PF378 (ssRNA)
RNA: GGGAGACAAGAAUAAACGCUCAACGAUGAGCGUGACCGAAGCUAUAAUCAGGUCGAUUCACCAAGCAAUCUUAUUCGACAGGAGGCUCACAACAGGC
modifications: 2'-F on all C and U
B12: PF380 (ssRNA)
RNA: GGGAGACAAGAAUAAACGCUCAACGAGCAAAAGUACUCACGGGACCAGGAGAUCAGCAACACGCGAGACGAAAUUCGACAGGAGGCUCACAACAGGC
modifications: 2'-F on all C and U
B13: PF396 (ssRNA)
RNA: GGGAGACAAGAAUAAACGCUCAAGCGGUCAGAAACAAUAGCUGGAUACAUACCGCGCAUCCGCUGGGCGAUAUUCGACAGGAGGCUCACAACAGGC
modifications: 2'-F on all C and U
B14: PF412 (ssRNA)
RNA: GGGAGACAAGAAUAAACGCUCAACGACCACAAUACAAACUCGUAUGGAACACGCGAGCGACAGUGACGCAUUUUCGACAGGAGGCUCACAACAGGC
modifications: 2'-F on all C and U
B15: PF395 (ssRNA)
RNA: GGGAGACAAGAAUAAACGCUCAACGAGCAAGGAACGAAUACAAACCAGGAAACUCAGCAACACGCGAGCAGUAAGAAUUCGACAGGAGGCUCACAACAGGC
modifications: 2'-F on all C and U
B16: PF373 (ssRNA)
RNA: GGGAGACAAGAAUAAACGCUCAACGAAUCAGUAAACAUAACACCAUGAAACAUAAAUAGCACGCGAGACGUCUUCGACAGGAGGCUCACAACAGGC
modifications: 2'-F on all C and U
B17: PF381 (ssRNA)
RNA: GGGAGACAAGAAUAAACGCUCAAAGGAUCACACAAACAUCGGUCAAUAAAUAAGUAUUGAUAGCGGGGAUAUUCGACAGGAGGCUCACAACAGGC
modifications: 2'-F on all C and U
B18: PF411 (ssRNA)
RNA: GGGAGACAAGAAUAAACGCUCAACAACCCAACCAUCUAGAGCUUCGAACCAUGGUAUACAAGGGAACACAAAAUUCGCGGAGGCUCCAACAGGCGGC
modifications: 2'-F on all C and U
B19: PF422 (ssRNA)
RNA: GGGAGACAAGAAUAAACGCUCAACGUCAAGCCAGAAUCCGGAACACGCGAGAAAACAAAUCAACGACCAAUCGAUUCGACAGGAGGCUCACAAAGGC
modifications: 2'-F on all C and U
B20: PF416 (ssRNA)
RNA: GGGAGACAAGAAUAAACGCUCAACAGUUCACUCAACCGGCACCAGACUACGAUCAGCAUUGGCGAGUGAACACUUCGACAGGAGGCUCACAACAGGC
modifications: 2'-F C and U
B21: PF388 (ssRNA)
RNA: GGGAGACAAGAAUAAACGCUCAACUGGCAACGGGAUAACAACAAAUGUCACCAGCACUAGCGAGACGGAAGGUUCGACAGGAGGCUCACAACAGGC
modifications: 2'-F C and U
B22: PF417 (ssRNA)
RNA: GGGAGACAAGAAUAAACGCUCAAAAAGACGUAUUCGAUUCGAAACGAGAAAGACUUCAAGUGAGCCCGCAGUUCGACAGGAGGCUCACAACAGGC
modifications: 2'-F C and U
B23: PF377M4 (ssRNA)
RNA: CUCAACGAGCCAGGAACAUCGACGUCAGCAAACGCGAG
modifications: 2'-F C and U; 2'-OMe G 7,9,13,14,21,24,28,36 and A 8,15,18,22,27,30,31,37 as listed

The target in one data set is T1, L-selectin (LS-Rg). Nature of the data set: filter; 37 C, SHMCK-140. The note with it: tags: human IgG2 Fc fusion; chain copies: dimer; label: 32P. As for the experimental part:
As described in SELEX Patent Applications, a nitrocellulose filter partitioning method was used to determine the affinity of RNA ligands for LS-Rg and for other proteins. Filter discs (nitrocellulose/cellulose acetate mixed matrix, 0.45 μm pore size, Millipore) were placed on a vacuum manifold and washed with 3 ml of SHMCK 140 buffer under vacuum. Reaction mixtures, containing ³²P labeled RNA pools and unlabeled LS-Rg, were incubated in SHMCK 140 for 10-20 min at 37° C., and then immediately washed with 3 ml SHMCK 140. The filters were air-dried and counted in a Beckman LS6500 liquid scintillation counter without fluor. Alternatively, binding studies employed 96 well micro-titer manifolds essentially as described in Example 13, paragraph E.
These calculations assume two ligand binding sites per chimera.
Consider B1, for which the Kd (commonly the equilibrium constant for the complex coming apart) was determined as 0.32 nM. On the same count and under the same terms, in the case of B2 it was 0.034 nM; in that of B3, 0.25 nM. Take B4: the Kd was 0.42 nM. Still for that read-out and setting: in the case of B5 it was 0.5 nM. Same read-out and setting: the figure for B6 is 0.53 nM; for B7 it is 0.19 nM; for B8 it is 0.16 nM.

The data set is the same for the next values; noted with them: tags: human IgG2 Fc fusion; chain copies: dimer; label: 32P; hairpin with 7-nt bulge.
With B9, the Kd amounted to 0.13 nM. For B10, binding was characterised by a dissociation constant (Kd) of 0.034 nM.

The next data set deals with T2, P-selectin (PS-Rg) (Homo sapiens, UniProt P16109 P16109:42-321). Nature of the data set: filter; 37 C, HSMC. Particulars: tags: human IgG1 Fc fusion; chain copies: dimer; label: 32P.
T2 sequence (P16109 42-321, one chain of several): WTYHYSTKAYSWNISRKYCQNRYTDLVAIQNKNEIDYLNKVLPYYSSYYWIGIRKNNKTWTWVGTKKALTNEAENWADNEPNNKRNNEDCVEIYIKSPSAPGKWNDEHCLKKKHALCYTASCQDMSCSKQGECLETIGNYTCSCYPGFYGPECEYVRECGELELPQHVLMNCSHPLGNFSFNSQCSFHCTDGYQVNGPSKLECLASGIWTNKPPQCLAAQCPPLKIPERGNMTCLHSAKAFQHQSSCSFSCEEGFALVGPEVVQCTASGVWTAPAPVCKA
Molecule B11 had a Kd of 0.0515 nM.

The molecule B12 gave a Kd of 0.0745 nM. On to B13, for which the Kd was 0.024 nM. Still for that read-out and setting: in the case of B14 it was 0.45 nM.

B15 returned a Kd of 0.026 nM.

Turning to B16, the dissociation constant Kd amounted to 0.0495 nM. The molecule B17 showed a Kd of 0.0165 nM.

As for B18, the Kd was 0.013 nM. Same read-out and setting: the figure for B19 is 0.172 nM.

A further data set deals with T2, P-selectin (PS-Rg). Nature of the data set: inhibition; sialyl-LewisX. The note with it: tags: human IgG Fc fusion; chain copies: 2 (stated dimer). As for the experimental part:
The ability of evolved RNA pools or cloned ligands to inhibit the binding of PS-Rg to sialyl-Lewis^x was tested in competitive ELISA assays (C. Foxall et al., 1992, supra). For these assays, the wells of Corning (25801) 96 well microtiter plates were coated with 100 ng of a sialyl-Lewis^x/BSA conjugate, air dried overnight, washed with 300 μl of PBS(−) and then blocked with 1% BSA in HSMC for 60 min at room temperature. RNA ligands were incubated with PS-Rg in HSMC/1% BSA at room temperature for 15 min. After removal of the blocking solution, 50 μl of PS-Rg (10 nM) or a PS-Rg (10 nM)/RNA ligand mix was added to the coated, blocked wells and incubated at room temperature for 60 minutes. The binding solution was removed, wells were washed with 300 μl of PBS(−) and then probed with HRP conjugated anti-human IgG, at room temperature to quantitate PS-Rg binding. After a 30 minute incubation at room temperature in the dark with OPD peroxidase substrate (Sigma P9187), the extent of PS-Rg binding and percent inhibition was determined from the OD₄₅₀.
Take CACUCAACCGGCACCAGACUACGAUCAGCAUUGGCGAGUG (ssRNA, 2'-F C and U) [PF416s2]: half-maximal inhibition (IC50) was put at 3 nM. On the same count and under the same terms, the figure for CGCUCAACGAGCCAGGAACAUCGACGUCAGCAAACGCGAGCG (ssRNA, 2'-F C and U) [PF377s2] is 4 nM; for CUCAACGAGCCAGGAACAUCGACGUCAGCAAACGCGAG (ssRNA, 2'-F C and U, biotin) [PF377s1B] it is 3 nM. Still for that read-out and setting: in the case of CUCAACGAGCCAGGAACAUCGACGUCAGCAAACGCGAG (ssRNA, 2'-F C and U; 2'-OMe G 7,9,14,21,36 and A 8,15,18,22,27,31,37 as listed) [PF377M3] it was 10 nM.

Still in this data set, the particulars now being: tags: human IgG Fc fusion; chain copies: 2 (stated dimer); label: fluorescein (inferred).
CUCAACGAGCCAGGAACAUCGACGUCAGCAAACGCGAG (ssRNA, 2'-F C and U) [PF377s1F]: it took 3 nM to reach half-maximal inhibition (IC50).

The next data set deals with T2, P-selectin (PS-Rg). The data set is described as follows: filter; HSMC, 37 C. The note with it: tags: human IgG Fc fusion; chain copies: 2 (stated dimer).
Molecule B20 had a dissociation constant (Kd) of 0.063 nM. Regarding B21, the Kd worked out at 0.09 nM.

B22 showed a Kd of 0.069 nM.

A further data set has as its target T2, P-selectin (PS-Rg). Nature of the data set: filter; HSMC. The note with it: tags: human IgG1 Fc fusion; chain copies: dimer.
CUCAACGAGCCAGGACUACGAUCAGCAAACGCGAG (ssRNA, 2'-F on all C and U) [PF377L1] returned a Kd of 0.22 nM. Same read-out and setting: in the case of GAAUCCGGAACACGCGAGAAAACAAAUCAACGACCAAUCGAUUCG (ssRNA, 2'-F on all C and U) [PF422s1] it was 1 nM.

CUCAACGAGCCAGGAACAUCGACGUCAGCAAACGCGAG (ssRNA, 2'-F on all C and U; 2'-OMe purines at 11 positions) [PF377M6] displayed a Kd of 0.25 nM. Molecule CUCAACGAAUCAGUAAACAUAACACCAUGAAACAUAAAUAGCACGCGAG (ssRNA, 2'-F on all C and U) [PF373s1] registered a Kd of 0.056 nM.

The same data set, now with this note: tags: human IgG Fc fusion; chain copies: 2 (stated dimer).
Take CACUCAACCGGCACCAGACUACGAUCAGCAUUGGCGAGUG (ssRNA, 2'-F C and U) [PF416s2]: the Kd worked out at 0.15 nM. The same measure, in the same setting: in the case of CGCUCAACGAGCCAGGAACAUCGACGUCAGCAAACGCGAGCG (ssRNA, 2'-F C and U) [PF377s2] it was 0.045 nM; in that of CUCAACGAGCCAGGAACAUCGACGUCAGCAAACGCGAG (ssRNA, 2'-F C and U, biotin) [PF377s1B], 0.065 nM. The molecule B23 gave a Kd of 1.7 nM.

In the case of CUCAACGAGCCAGGAACAUCGACGUCAGCAAACGCGAG (ssRNA, 2'-F C and U; 2'-OMe G 7,9,14,21,36 and A 8,15,18,22,27,31,37 as listed) [PF377M3], binding was put at a Kd of 0.9 nM. Still for that read-out and setting: in the case of CUCAACGAGCCAGGAACAUCGACGUCAGCAAACGCGAG (ssRNA, 2'-F C and U; 2'-OMe G7 G9 G14 G21 A8 A15 A18 A22 A27 A31) [PF377M1] it was 0.12 nM.

Staying with this data set, now noted: tags: human IgG Fc fusion; chain copies: 2 (stated dimer); label: fluorescein (inferred).
As for CUCAACGAGCCAGGAACAUCGACGUCAGCAAACGCGAG (ssRNA, 2'-F C and U) [PF377s1F], binding was characterised by a dissociation constant (Kd) of 0.06 nM.

(Values after US20030059769, “High affinity nucleic acid ligands to lectins” (published 2003).)
